Laboratory results taken from PMC11765556, “Cytosine Methylation Changes the Preferred Cis-Regulatory Configuration of Arabidopsis WUSCHEL-Related Homeobox 14”.

B1: M1 (dsDNA)
DNA 1: ATGCTAGCTCCATCTGTATTGATTGTTTATGGCGGTGACGTACT
DNA 2: AGTACGTCACCGCCATAAACAATCAATACAGATGGAGCTAGCAT
B2: ER0 (dsDNA)
DNA 1: ATGCTAGCTCCATCTGTGATTGCAATCAATGGCGGTGACGTACT
DNA 2: AGTACGTCACCGCCATTGATTGCAATCACAGATGGAGCTAGCAT
B3: ER1 (dsDNA)
DNA 1: ATGCTAGCTCCATCTGTGATTGACAATCAATGGCGGTGACGTACT
DNA 2: AGTACGTCACCGCCATTGATTGTCAATCACAGATGGAGCTAGCAT
B4: ER0-AT1G15640 (dsDNA)
DNA 1: AATAAGATGTACCCAATGATTGCAATGATGAGCCCAATGAGTGC
DNA 2: GCACTCATTGGGCTCATCATTGCAATCATTGGGTACATCTTATT

Key:
AtWOX14 (monomer) = target: T1, AtWOX14 (monomer) (Arabidopsis thaliana, UniProt Q9LM84 1-211); experiment: EMSA; 50-200 nM WOX14; monomeric shift; EMSA: 10 mM Tris (pH not stated), 50 mM NaCl, 1 mM MgCl2, 4% glycerol, 0.5 mM EDTA, 25 C 40 min, 30 ng probe in 20 uL; 6% native PAGE, 0.5x TBE, 4 C; conditions: protein: recombinant; tags: N-terminal His (pETG20A-His)
T1 sequence: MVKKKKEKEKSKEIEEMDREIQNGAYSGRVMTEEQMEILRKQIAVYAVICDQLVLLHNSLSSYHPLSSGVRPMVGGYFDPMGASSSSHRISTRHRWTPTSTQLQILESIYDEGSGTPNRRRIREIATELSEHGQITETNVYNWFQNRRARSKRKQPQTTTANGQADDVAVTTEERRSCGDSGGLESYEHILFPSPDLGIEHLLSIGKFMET

[1] = target: T2, AtWOX14 (homodimer on DNA) (Arabidopsis thaliana, UniProt Q9LM84 1-211); experiment: EMSA; 50-200 nM WOX14; dimeric shift at high protein; EMSA: 10 mM Tris (pH not stated), 50 mM NaCl, 1 mM MgCl2, 4% glycerol, 0.5 mM EDTA, 25 C 40 min, 30 ng probe in 20 uL; 6% native PAGE, 0.5x TBE, 4 C; conditions: protein: recombinant; tags: N-terminal His (pETG20A-His); chain copies: 2
T2 sequence: T1 sequence

[2] = target: T2, AtWOX14 (homodimer on DNA); experiment: EMSA; 25-200 nM WOX14; dimeric shift; EMSA: 10 mM Tris (pH not stated), 50 mM NaCl, 1 mM MgCl2, 4% glycerol, 0.5 mM EDTA, 25 C 40 min, 30 ng probe in 20 uL; 6% native PAGE, 0.5x TBE, 4 C; conditions: protein: recombinant; tags: N-terminal His (pETG20A-His); chain copies: 2

Binder | binding result (AtWOX14 (monomer)) | binding result [1] | binding result [2]
B1 | binds |  | 
B2 | binds | binds | 
B3 | binds | binds | 
B4 |  |  | binds
